No end group written: not given here.

From US20120244165A1 (published 2012) come the findings set out here.

The target of assay [1] is T1, peptide 12-20 with alanine at aa 16 (A16) (also: biotinylated (position not given here)).
T1 construct: Second library; the entry already carries the alanine
T1 peptide: VHHQALVFF
Briefly: ELISA on biotinylated peptides on streptavidin plates. As for the experimental part:
(§1) Epitope mapping of the monoclonal antibody mACI-01-Ab7 C2 was performed by ELISA using three different peptide libraries. One library comprises a total of 33 biotinylated peptides covering the complete amino acid (aa) sequence of Aβ1-42 (produced by Mimotopes and purchased from ANAWA Trading SA), the second library contains biotinylated peptides using peptide 12 (aa12-20 of Aβ) from the first peptide library and substituting each amino acid in the sequence by an alanine (see table 41 below), and the third library contains biotinylated peptides 13, 14, or 15 (aa 13-21, 14-22 or 15-23 of Aβ) and substituting in each case the last amino acids to an alanine or to a glycine for aa 21 which is already an alanine (see table 5 below). A biotinylated complete Aβ1-42 peptide was used as positive control (Bachem). Epitope mapping was done according to the manufacturer's (Mimotopes) instructions. Briefly, Streptavidin coated plates (NUNC) were blocked with 0.1% BSA in PBS overnight at 4° C. After washing with PBS-0.05% Tween 20, plates were coated for 1 hour at RT with the different peptides from the library, diluted in 0.1% BSA, 0.1% Sodium Azide in PBS to a final concentration of 10 μM. After washing, plates were incubated for 1 hour at RT with the mACI-01-Ab7 C2 antibody or an isotype control mouse IgG2b antibody, diluted to 10 μg/ml in 2% BSA, 0.1% Sodium Azide in PBS. Plates were washed again and incubated with alkaline phosphatase conjugated goat anti mouse IgG for 1 h at RT. After final washing, plates were incubated with phosphatase substrate (pNPP) and read at 405 nm using an ELISA plate reader.
(§2) It was shown that the monoclonal antibody mACI-01-Ab7 C2 bound specifically to peptides 12, 13, 14 and 15 of the first peptide library. […] A second library with alanine substitutions was used to determine the critical aa for binding to peptide 12-20 ([…]) (SEQ ID NO: 29).

Assay [2] addresses T2, peptide 12-20 with alanine at aa 17 (A17) (also: biotinylated (position not given here)).
T2 construct: Second library; the entry already carries the alanine
T2 peptide: VHHQKAVFF
Described as above. As for the experimental part: as §1, §2

Assay [3] has as its target T3, peptide 12-20 with alanine at aa 19 (A19) (also: biotinylated, position not given here).
T3 construct: Second library; the entry already carries the alanine
T3 peptide: VHHQKLVAF
The assay is described as above. The protocol: as §1, §2

For assay [4], the target named is T4, peptide 12-20 with alanine at aa 20 (A20) (also: biotinylated, position not given here).
T4 construct: Second library; the entry already carries the alanine
T4 peptide: VHHQKLVFA
The description is as above. As for the experimental part: as §1, §2

In another assay the target is T5, Aβ1-42 fibers (UniProt P05067 672-713).
T5 construct: domain: Aβ1-42; Aggregated, fibrillar state of Aβ1-42 (incubated for days at 37 °C); number of peptide copies not defined; also called Amyloid 1-42 fibrils; fibrillar Aβ1-42
Briefly: binding affinity ELISA on plates coated with amyloid, alkaline phosphatase anti-mouse IgG detection. The protocol:
(§3) In order to evaluate the specificity of mACI-01-Ab7 C2 to different stages of polymerized amyloid protein, monomeric and polymeric soluble amyloid, particularly, amyloid β (Aβ) protein, and fibrillic amyloid, an ELISA coated with these different stages of polymeric beta-amyloid was performed. Monomers were prepared according to a modified method published by⁷, polymeric soluble amyloid, particularly, amyloid β (Aβ) according to⁸, whereas fibers were performed by incubation of amyloid (Bachem, Switzerland) with a final concentration of 1 μg/μl in Tris/HC1 pH 7.4 at 37° C. for 5 days followed by a centrifugation step (10,000 rpm for 5 minutes). Then amyloid polymers were coated on an ELISA plates with a final concentration of […] and binding affinity ELISA by using an anti-mouse IgG monoclonal antibody (Jackson ImmunoResearch Laboratories, Inc.) labelled with alkaline phosphate was performed.
Background: In an ELISA, binding on a coated surface is turned into a signal by an enzyme label.

A further assay addresses T6, Aβ1-42 monomers (UniProt P05067 672-713).
T6 construct: domain: Aβ1-42; Unlabelled monomeric preparation (HFIP film, DMSO, PBS); also called Amyloid monomers; Aβ1-42 monomeric peptide
Described as above. The protocol:
as §3

A further assay concerns the target T7, Aβ1-42 oligomers (UniProt P05067 672-713).
T7 construct: domain: Aβ1-42; Soluble oligomeric preparation (SDS-induced); number of copies not defined; also called amyloid oligomers; polymeric soluble amyloid β (Aβ) protein
Described as above. The protocol:
as §3

T6 sequence (P05067 672-713 limits assumed): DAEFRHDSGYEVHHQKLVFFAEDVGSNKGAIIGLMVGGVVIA
T5 sequence (P05067 672-713 limits assumed): as above
T7 sequence (P05067 672-713 limits assumed): as above

B1: mACI-01-Ab7 C2 (antibody, mouse IgG2b, kappa, V domains shown)
VH: EVQLVESGGGLVQPGGSLKLSCAASGFTFSSYGMSWVRQTPDKRLELVASINSNGGSTYYPDSVKGRFTISRDNAKNTLYLQMSSLKSEDTAMYYCASGDYWGQGSTLTVSS
VL: DVVMTQTPLSLPVSLGDQASISCRSSQSLVYSNGDTYLHWYLQKPGQSPKLLIYKVSNRFSGVPDRFSGSGSGTDFTLKISRVEAEDLGVYFCSQSTHVPWTFGGGTKLEIKR
notes: also called mC2; Mouse C2
Turning to B1, the binding result in assay [1], in assay [2], in assay [3] and in assay [4] was “no binding (tested: antibody at 10 µg/ml)” each time. For the same molecule, the IC50 with Aβ1-42 fibers is 5.27 nM; with Aβ1-42 monomers it was 8.3 nM; with Aβ1-42 oligomers, 2.53 nM.

Broadly, the IC50 is the concentration that inhibits the measured activity by half. Read a high IC50 as lower potency.
